The values below come from the RNAGym collection of RNA variant scans (doi:10.1021/acssynbio.7b00057).

B1: Pistol ribozyme (parent)
chain: GGGUCGUUGUUCCAUAAUCGCGUGGAUAUGGCACGCAAGUUUCUACCGGGCACCGUAAAUGUCCGACUGGAGCCGUUCGGGCGGCUAUAAACAGACCUCAGGCCCGAAGCGUGGCGGCACCUGCCGCCGGUGGUAAAAAAGAUCGGAAGAGCACACGUCU

The series covers variants of B1. Put plainly: aptazyme ON/OFF ratio, guanine; higher = stronger switching; co-transcriptional cleavage with and without guanine.
In the case of U7A U8A U11G C12G, the “aptazyme ON/OFF ratio” value came out at 1.27. With U7G U8C G9A U11G C12A, the “aptazyme ON/OFF ratio” value came out at 1.1. As for G9C U10C U11A, the figure is 1.12; as for U7C U8G U11G C13U, 1.14. The same measure for U7C U8A G9A U10G C12U C13G: 1.14; for U8A C12G C13A: 1.48; for U7C U8A G9C U10A U11G C13A: 1.12.

As for U8C G9C U10C U11A C12U, the “aptazyme ON/OFF ratio” value worked out at 1.02.

In the case of U7C U8G U10G U11G C12U C13G, the “aptazyme ON/OFF ratio” value was determined as 1.26. The same measure for U7A U8G U10G U11C C12G C13A: 1.22. As for U7A U8A G9U U10G U11C C12U, the figure is 1.08; as for U7A U10A U11A, 1.21; as for U8A U10A U11G C12A C13G, 1.3. In the case of U7G G9A U10A U11A C12U C13G, the “aptazyme ON/OFF ratio” value was 1.19. Regarding U7G U8A G9C C12G C13G, the “aptazyme ON/OFF ratio” value was 1.04. The same measure for U7G U8C G9A U10G C13A: 1.28. The same measure for U7C U8C G9U U10C U11G C12A C13G: 1.11; for U8G U10G U11G C12U: 1.44. The same measure for U8A G9C U10C U11A C13U: 1.11. In the case of U7A G9C U10C U11C C12A, the “aptazyme ON/OFF ratio” value was found to be 1.01. Consider U7C U8G G9A U10C U11C C12U C13U, for which the “aptazyme ON/OFF ratio” value amounted to 1.02. The same measure for U7G U11C C12U C13U: 1.19; for U8A G9C U10C U11G C12A C13G: 1.08. As for U7C U8G G9A U10A U11A C13A, the figure is 1.12. Regarding U7A U10A C12A C13G, the “aptazyme ON/OFF ratio” value came to 1.1. As for U7C U8A G9U U10A U11A C12G C13A, the figure is 1.08.

With U7C U8G G9C U11G C12U, the “aptazyme ON/OFF ratio” value is 1.23.

For U7A U8G G9U U10C U11C C12G C13U, the “aptazyme ON/OFF ratio” value came out at 1.46. As for U7G U8C G9C U10A U11C, the figure is 1.18; as for U7G U8C G9C U10A U11G, 1.51; as for U7C U8C U10A U11A C12G C13U, 1.11. The same measure for U7C U8G U10A U11A C12U C13U: 1.16.

With U7A U8A G9C U10C U11G C12U, the “aptazyme ON/OFF ratio” value came out at 1.08. The same measure for U7C U10A U11A C12G C13A: 1.11; for U8C G9C U10A U11A C12G C13A: 1.1.

In the case of U8G G9U U10A U11G C13G, the “aptazyme ON/OFF ratio” value turned out to be 1.03. Turning to U7G U8C G9U U10C U11A C12U C13U, the “aptazyme ON/OFF ratio” value came to 1.9. Turning to U10G C12U C13A, the “aptazyme ON/OFF ratio” value stood at 1.33. The same measure for U7A U8A U10C C12U C13G: 1.07; for U7A U8A G9C U10A U11A C12G C13G: 1.23; for U8G G9C U10G U11C C12U C13A: 1.03. As for U7G G9A U10G U11G C12U, the figure is 1.16; as for U7A U8C G9U U10A U11C C12A C13G, 1.14; as for U7A G9U U10G U11A C13A, 1.09. The same measure for U7A U8C G9A U10A U11A C12G C13A: 1.11; for G9U U10G U11G C12A C13G: 1.13. With U7A U8G G9U U10C U11C C12U C13U, the “aptazyme ON/OFF ratio” value was determined as 1.23. For U7G U8G G9A U10C C12G C13G, the “aptazyme ON/OFF ratio” value is 1.16. The same measure for U7G U8G G9A U10C C12G C13A: 1.26.

Turning to U7A U10A U11C C12A, the “aptazyme ON/OFF ratio” value came out at 1.08. As to U7A U8G G9A U11A C12A, the “aptazyme ON/OFF ratio” value was determined as 1.56. Take U7G G9U U10C U11G C12G C13U: the “aptazyme ON/OFF ratio” value was 1.06. As for U7G U8C G9A U10G U11G C12A, the figure is 1.3. The same measure for U7C U8C G9C U11A C12A C13G: 1.14; for U7A G9U U10G U11C C12A: 1.21; for U7G U8A G9C U10A C12A C13G: 1.01. The same measure for U8C G9C U10C U11G C13U: 1.17.

As to U7G U8C U10A U11C C12A C13U, the “aptazyme ON/OFF ratio” value was found to be 1.27. The same measure for U7C U8C U10A U11G C12A: 1.13; for U8A G9U U10G U11C C12A C13A: 1.09. Regarding U7G U8C U10C U11G C12G, the “aptazyme ON/OFF ratio” value was 1.15. With U7A G9A U10G C13G, the “aptazyme ON/OFF ratio” value stood at 1.17. The same measure for U7G U8G G9C U10G C12U: 1.17.

For the variant G9C U10C U11A C12U C13A, the “aptazyme ON/OFF ratio” value is 1.08. In the case of U7C G9U U10A U11A C12A C13U, the “aptazyme ON/OFF ratio” value was 1.18.

Consider U7G U8C G9C U10A C13A, for which the “aptazyme ON/OFF ratio” value amounted to 1.08. As for U8G G9C U10A C12A C13A, the figure is 1.13; as for U7C U8G G9U U11A, 1.58; as for U7G U8A G9A U10A U11C C13G, 1.08. The same measure for U7A G9U U10G U11A: 1.08.

Regarding U8A U10A U11A C12A, the “aptazyme ON/OFF ratio” value was found to be 1.14. The same measure for U7C U8A U10C U11G C12A C13A: 1.16.

As to U7G U8G G9U U10A U11A C12U C13G, the “aptazyme ON/OFF ratio” value was 1.11. With U7A U8A G9U U10C U11G C12U C13G, the “aptazyme ON/OFF ratio” value was determined as 1.07.

In the case of U7C U8A U10C U11A C13G, the “aptazyme ON/OFF ratio” value stood at 1.15.

As for U7C U8G G9A, the “aptazyme ON/OFF ratio” value came out at 1.12. The same measure for U7A U10C U11A C12U C13A: 1.17; for U7C U8A G9C U10A U11C C12A: 1.28; for U7G U8C U10C U11C C12U: 1.16. In the case of U7G U8A G9U U10C C12U, the “aptazyme ON/OFF ratio” value is 1.32. For U7C U8A G9U U11A C13U, the “aptazyme ON/OFF ratio” value stood at 1.17. As for U8A G9U U10A U11G C12A, the figure is 1.07; as for U8A G9U U10G U11A C13G, 1.03; as for U7C U8C G9A U10G U11G, 1.59.
